What was measured:
[1] = test system: tumor or primary cell proliferation; assay: Tumor or primary cell proliferation; type: cell-based; settings: at concentrations as high as 100 μM
Protocol: (§1) Cell Proliferation Assay. The effect of rK5 and rK5 peptides on endothelial cells were assessed using a proliferation assay with 1% BSA and 3 ng/ml bFGF in serum-free media. Relative cell numbers in each well of a 96 well microplate after incubation for 72 hours in the absence or presence of inhibitors were determined by using the AQueous cell proliferation assay (Promega, San Luis Obispo, Calif.). For all other cell lines tested for proliferation, minimal growth media was used (Cao, Y., Ji, R., Davidson, D., Schaller, J., Marti, D., Sohndel, S., McCance, S., O'Reilly, M., Llinas, M., and Folkman, J. Kringle domains of human angiostatin. Characterization of the anti-proliferative activity on endothelial cells. (1996) J. Biol. Chem. 271, 29461-29467). Results are presented as the percent inhibition of control cell (bFGF-induced) proliferation.

[2] = test system: endothelial cell migration; assay: Endothelial cell migration induced by various angiogenesis inducers (FIG. 9A); type: cell-based, human; settings: aFGF, bFGF, IL-8, PDGF, TGF-β and VEGF; rK5 400 pM (100 pM for VEGF, PDGF)
Protocol: FIG. 9A is a graph showing inhibition by rK5 of endothelial cell migration induced by a variety of angiogenesis inducers including aFGF, bFGF, IL-8, PDGF, TGF-β, VEGF, HGF and […] at concentrations of 50 ng/mL, 15 ng/mL, 40 ng/mL, 1 pg/mL, 100 pg/mL 40 ng/mL and 250 ng/mL respectively. The concentration of rK5 used was 400 pM except for VEGF (rK5=100 pM), PDGF (rK5=100 pM) and HGF (rK5=10 pM). Membranes were covered, fixed and stained and the number of cells that had migrated to the upper chamber per 10 high power field counted. Background migration to DME+0.1% BSA was subtracted and the data reported as the number of cells migrated per 10 high power fields (100×). […]
Endothelial cell migration assays: The effect of rK5 on endothelial cell migration was determined by two different methods. […] After 4 h, migrated cells were measured by fluorescence (Frevert C W, Wong V A, Goodman R B, Goodwin R, Martin T R. Rapid fluorescence-based measurement of neutrophil migration in vitro. J Immunol Methods. 1998 Apr. 1;213(1):41-52). […] Growth factors were used, where indicated, at concentrations determined in preliminary experiments to give equivalent migration responses of about 100 cells migrated/high powered field (400×). […] Membranes were recovered, fixed and stained and the number of cells that had migrated to the upper chamber per 10 high power fields counted. […]

fibroblasts = assay: Fibroblast migration; type: cell-based; settings: concentrations up to 1000-fold higher than for endothelial cell migration; data not shown
HMVEC = HMVEC (Homo sapiens, UniProt P11021); assay: VEGF-stimulated HMVEC migration (Boyden chamber); type: cell-based; settings: read-out: inhibition of endothelial cell migration
Protocol: Endothelial cell migration assays: The effect of rK5 on endothelial cell migration was determined by two different methods. The first assay was performed in a 96 well plate with a cellulose membrane between the upper and lower chambers. HMVEC were starved of growth factors overnight, labeled with fluorescent calcein AM (50-100 nM), plated into a 96 well migration chamber (2.9×10^4/well) (Neuroprobe, Gaitherburg, Md.), and stimulated to migrate with VEGF (5 ng/mL). After 4 h, migrated cells were measured by fluorescence (Frevert C W, Wong V A, Goodman R B, Goodwin R, Martin T R. Rapid fluorescence-based measurement of neutrophil migration in vitro. J Immunol Methods. 1998 Apr. 1;213(1):41-52). In a second assay for cellular migration, a standard Boyden chamber was used (Polyerini, P. J., Bouck, N. P. & Rastinejad, F. Assay and purification of naturally occurring inhibitor of angiogenesis. Meth. Enzymol. 198, 440-450 (1991)). HMVEC cells were starved overnight in DME containing 0.1% bovine serum albumin (BSA) and harvested by scraping and resuspended in DME with 0.1% BSA at 1.5×10^6 cells per ml. Cells were added to the bottom of a 48-well, Boyden chamber. The chamber was assembled and inverted, and cells were allowed to attach for 2 hours at 37° C. to polycarbonate chemotaxis membranes (5 μm pore size) that had been soaked in 0.1% gelatin overnight and dried. The chamber was re-inverted, test substances, including activators were added to the wells of the upper chamber and the apparatus was incubated for 4 hours at 37° C. Growth factors were used, where indicated, at concentrations determined in preliminary experiments to give equivalent migration responses of about 100 cells migrated/high powered field (400×). […] Membranes were recovered, fixed and stained and the number of cells that had migrated to the upper chamber per 10 high power fields counted. Background migration to DME+0.1% BSA was subtracted and the data reported as the number of cells migrated per 10 high power fields (400×) or, when results from multiple experiments were combined, as the percent inhibition of migration compared to the positive growth factor control (Polyerini, P. J., Bouck, N. P. & Rastinejad, F. Assay and purification of naturally occurring inhibitor of angiogenesis. Meth. Enzymol. 198, 440-450 (1991)).

PC3 = assay: Tumor cell proliferation, PC3; type: cell-based; settings: PC3, 72 hours
Protocol: as §1

HMVEC, sequence (P11021 19-654): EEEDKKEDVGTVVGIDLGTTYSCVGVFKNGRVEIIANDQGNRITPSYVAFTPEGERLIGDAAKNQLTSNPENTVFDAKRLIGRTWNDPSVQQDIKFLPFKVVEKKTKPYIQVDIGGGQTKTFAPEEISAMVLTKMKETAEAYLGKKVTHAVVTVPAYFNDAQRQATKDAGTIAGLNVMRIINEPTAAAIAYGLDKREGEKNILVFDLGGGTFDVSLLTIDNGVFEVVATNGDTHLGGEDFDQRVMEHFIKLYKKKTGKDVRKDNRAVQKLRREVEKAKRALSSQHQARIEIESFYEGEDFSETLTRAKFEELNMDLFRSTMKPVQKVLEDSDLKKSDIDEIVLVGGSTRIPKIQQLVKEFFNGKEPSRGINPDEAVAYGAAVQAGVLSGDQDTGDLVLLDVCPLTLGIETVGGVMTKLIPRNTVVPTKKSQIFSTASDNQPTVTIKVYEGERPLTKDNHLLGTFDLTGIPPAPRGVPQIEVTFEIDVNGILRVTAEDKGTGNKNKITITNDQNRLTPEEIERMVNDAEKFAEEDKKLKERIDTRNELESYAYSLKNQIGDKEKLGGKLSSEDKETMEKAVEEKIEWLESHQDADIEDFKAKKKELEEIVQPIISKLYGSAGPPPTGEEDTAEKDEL

B1: rK5: recombinant kringle 5 fragment of human plasminogen (residues 450-543), expressed in E. coli or yeast (protein)
chain: LLPDVETPSEEDCMFGNGKGYRGKRATTVTGTPCQDWAAQEPHRHSIFTPETNPRAGLEKNYCRNPDGDVGGPWCYTTNPRKLYDYCDVPQCAA
- inhibition of tumor or primary cell proliferation [1]: did not cause inhibition
- inhibition of endothelial cell migration induced by inducers of angiogenesis [2]: inhibited
- inhibition of migration of fibroblasts (fibroblasts): failed to inhibit
- IC50 (HMVEC): 250 pM
- IC50 values for cell proliferation (PC3): >100 µg/mL

Source: US20050053993A1, “Uses of an endothelial cell receptor” (priority 2002, published 2005)
